Two molecules from publication PMC8666677 (The Journal of Biological Chemistry, 2021) can be followed below.

No end group written: not given here. fl = not defined here

Assay [1] has as its target ^D1-3YAClpA^xl (cross-linked ClpA pseudohexamer with alternating WT and defective D1 pore loops) (E. coli) (UniProt P0ABH9).
The target in another assay is T1, ClpS adapter (E. coli, UniProt P0A8Q6 1-106).
T1 sequence: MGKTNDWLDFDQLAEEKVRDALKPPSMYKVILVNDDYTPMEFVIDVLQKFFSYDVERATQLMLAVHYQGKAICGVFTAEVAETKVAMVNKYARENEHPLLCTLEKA
Kind of assay: fluorescence polarisation. (Polarisation of emitted light reports the rotation of a fluorescent probe.)

“^UFtitin-ssrA (ssrA-tagged titin^I27 domain unfolded by chemical modification of its two partially buried cysteines) (domain or fragment)”: the KM of ClpAP degradation of ^UFtitin-ssrA, against ClpA^xl in assay [1] amounted to 3 fold.

B1: LLYVQRDSKEC-fl fluorescent N-degron peptide (peptide)
peptide: LLYVQRDSKEC-fl
modifications: reading uncertain; also: printed as LLYVQRDSKEC-fl
As for B1, the binding result with ClpS adapter is given as “binds”.
